Assay [1] deals with T1, Recombinant human CD123 SP1 ECD-His tag protein (human, UniProt P26951 20-305).
T1 construct: bought from R&D Systems (#301-R3/CF); biotinylated for some assays; also called rhCD123 SP1; huCD123 ECD SP1
T1 sequence: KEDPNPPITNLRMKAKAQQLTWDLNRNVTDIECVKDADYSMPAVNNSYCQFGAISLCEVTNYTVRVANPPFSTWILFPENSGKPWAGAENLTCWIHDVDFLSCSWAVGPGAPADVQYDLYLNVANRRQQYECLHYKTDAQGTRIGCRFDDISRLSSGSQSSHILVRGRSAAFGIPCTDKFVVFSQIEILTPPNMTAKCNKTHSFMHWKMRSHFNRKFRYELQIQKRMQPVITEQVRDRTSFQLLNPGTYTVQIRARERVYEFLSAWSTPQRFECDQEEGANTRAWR
In words: SPR ProteOn, captured mAb. As to the method: (§1) The biosensor surface was prepared by covalently coupling Goat anti-Human IgG (Fc) to the surface of a GLC chip (BioRad) using the manufacturer instructions for amine-coupling chemistry. […] The RU immobilized also included a goat anti-mouse Fc antibody that was added to capture other antibodies not included in the ones reported here. Since the mixture was 1:1 about 50% of these RU immobilized are expected to be goat anti-human Fc. The kinetic experiments were performed at 25° C. in running buffer (PBS pH 7.4, 0.005% P20, 3 mM EDTA). […] The reference spots (Goat anti-Human IgG (Fc)-modified surface) containing no candidate captured were used as a reference surface. Capture of mAb was followed by 3 min injection (association phase) of antigen at 40 μL/min, followed by 10 min of buffer flow (dissociation phase). […] Data was processed on the instrument software. Double reference subtraction of the data was performed by subtracting the curves generated by buffer injection from the reference-subtracted curves for analyte injections. Kinetic analysis of the data was performed using 1:1 Langmuir binding model with group fit. The result for each mAb was reported in the format of Kₐ (kon or on-rate), Kd (koff or off-rate), KD (Equilibrium dissociation constant) (Table 5).

Assay [2] addresses T2, Recombinant human CD123 SP2 ECD protein (human, UniProt P26951 101-303).
T2 construct: also called rhCD123 SP2; CD123 ECD SP2
T2 sequence: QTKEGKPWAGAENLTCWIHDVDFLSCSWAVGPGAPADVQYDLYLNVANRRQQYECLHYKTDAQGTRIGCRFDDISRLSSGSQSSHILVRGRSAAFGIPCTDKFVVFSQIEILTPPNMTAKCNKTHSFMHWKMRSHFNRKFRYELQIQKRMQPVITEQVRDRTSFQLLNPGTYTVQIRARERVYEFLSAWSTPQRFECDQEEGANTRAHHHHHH
The experiment in a line: SPR ProteOn, captured mAb. As to the method:
as §1

The target of assay [3] is T3, human CD123 SP2 ECD displayed on pDisplay-transfected cells (human, UniProt P26951 101-305).
T3 construct: ECD anchored on the surface of stably transfected HEK293 cells; also called hCD123 SP2 cells; pDisplay CD123SP2
T3 sequence: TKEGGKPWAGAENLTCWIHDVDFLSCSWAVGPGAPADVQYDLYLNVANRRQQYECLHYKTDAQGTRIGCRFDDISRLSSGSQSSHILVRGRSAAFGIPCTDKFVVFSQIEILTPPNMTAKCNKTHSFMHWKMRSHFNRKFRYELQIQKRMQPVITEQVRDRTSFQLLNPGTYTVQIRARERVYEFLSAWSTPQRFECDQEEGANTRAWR
The experiment in a line: MSD cell binding on 293F pDisplay cells; fold change over background; parental 293F cells as control. As to the method:
(§2) The object of the screening assay was to identify antibodies that bound to cells expressing hCD123 SP1 and SP2 as well as cross reactivity with cells expressing cynoCD123 SP1.
(§3) Cells were immobilized and phages were assayed in triplicate. […] 5000 cells per well were plated into a 384 well plate (MA6000, cat. L21XB, MSD) and allowed to adhere for 2 hr. Cells were then blocked with 20% FBS in PBS (Gibco) for 15 mins. Antibody supernatants were then added and left at RT for 1 hr. Cells were washed 3 times with PBS and a ruthenium labeled secondary antibody (Jackson Immuno Research) was then added at 1 μg/mL and incubated for 1 hr at room temperature. A further washing step was then applied and 35 μL per well of MSD Read buffer T (surfactant free) was then added and incubated for 30 min for detection. Plates were then read using Sector Imager 2400 (MSD). Data was normalized to controls and graphed using GraphPad Prism Version 5. A positive binder was determined to be a hit with a signal 3× greater than background (FIGS. 2A, B and C).

Assay [4] has as its target T4, cyno CD123 ECD displayed on pDisplay-transfected cells (cynomolgus monkey).
T4 construct: ECD anchored on the surface of stably transfected HEK293 cells; also called cynoCD123 SP1 cells; cynoCD123 cells
T4 chain: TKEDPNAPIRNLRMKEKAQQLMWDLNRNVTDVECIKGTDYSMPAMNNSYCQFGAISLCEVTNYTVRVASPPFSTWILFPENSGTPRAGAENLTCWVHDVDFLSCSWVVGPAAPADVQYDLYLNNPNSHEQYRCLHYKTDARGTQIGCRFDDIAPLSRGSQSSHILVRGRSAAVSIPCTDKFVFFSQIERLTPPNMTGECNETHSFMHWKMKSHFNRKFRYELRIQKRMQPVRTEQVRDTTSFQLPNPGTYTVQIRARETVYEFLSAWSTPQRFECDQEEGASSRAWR
The description is as above. Here is the method:
as §2, §3

Assay [5] concerns the target T1, Recombinant human CD123 SP1 ECD-His tag …. In words: SPR Biacore 3000, captured mAb. As to the method:
Kinetic studies were performed at 25° C. using a Biacore 3000 (BIAcore, Inc., now part of GE Healthcare). […] Sheep anti-Human Fd specific antibody (The binding site Prod # PC075) was covalently attached to two flow cells (normally 3 and 4) of the carboxymethyl dextran coated gold surfaces (CM-5 Chip, Biacore). The carboxymethyl groups of dextran were activated with N-Ethyl-N′-(3-Dimethylaminopropyl)carbodiimide (EDC) and N-hydroxysuccinimide (NHS). The antibodies were coupled at pH 4.5 in 10 mM sodium acetate. Any remaining reactive sites on the surface were blocked by reaction with ethanolamine. […] Association data was collected for 2 min followed by 10 min of dissociation. The surface was regenerated with 30 μL of 100 mM H3PO4 100 μL/min. All samples were prepared in D-PBS containing 3 mM EDTA and 0.005% surfactant P20. Data reported is the difference in SPR signal between the flow cell containing the captured antibody or Fab and a reference cell without captured antibody or Fab. Additional instrumental contributions to the signal were removed by subtraction of the data from the blank injection from the reference-subtracted signal. Data were performed in triplicate and analyzed by fitting association and dissociation phases at all concentrations (global fit) with a 1:1 binding model using the BIAevaluation software (BIAcore, Inc.). […] Data presented is an average.
Background: In SPR one partner is held on a chip, and binding of the other changes the refractive index at the surface.

Values joined by “and” are separate entries in the source; they are usually repeats but may differ in a detail not shown here. Equal entries are not always repeated.

The source of these data is patent publication US20160068605A1 (Janssen / Centocor, published 2016).

Broadly, the Kd is the free concentration of one partner at which half of the binding sites on the other are occupied at equilibrium, for simple one-to-one binding. For orientation: koff means the first-order rate constant of dissociation. The term kon denotes a measure of how fast the partners come together.

B1: I3RB11 (antibody, IgG1, V domains shown)
VH: QVQLVQSGAEVKKPGSSVKVSCKASGGTFSSYGISWVRQAPGQGLEWMGGIIPIFGTANYAQKFQGRVTITADESTSTAYMELSSLRSEDTAVYYCARDLFSWRYSNFDYWGQGTLVTVSS
VL: not shown
notes: IgG1
Take B1: in assay [1], the Kd was 2.89 nM, the koff was 0.00253 s⁻¹ and the kon was found to be 874000 M⁻¹ s⁻¹. Moreover, the binding result in assay [2] is on record as “no binding (tested: 400 nM)”. Further, the binding result in assay [3] is recorded as “no binding (tested: 10 µg/mL)”. Also, the binding result in assay [4] is “no binding (tested: 10 µg/mL)”.

B2: I3RB6 (antibody, IgG1, V domains shown)
VH: QVQLVQSGAEVKKPGSSVKVSCKASGGTFSSYAISWVRQAPGQGLEWMGGIIPIFGTANYAQKFQGRVTITADESTSTAYMELSSLRSEDTAVYYCARGLFNWSNVALDYWGQGTLVTVSS
VL: not shown
notes: IgG1; also called I3RB06
On to B2, for which, in assay [1], the Kd is 11.5 nM, the koff is 0.00593 s⁻¹ and the on-rate (kon) was determined as 514000 M⁻¹ s⁻¹. In assay [2], the binding result is recorded as “no binding (tested: 400 nM)”. Also, in assay [3], the binding result was “no binding (tested: 10 µg/mL)”. Also, the binding result in assay [4] is recorded as “no binding (tested: 10 µg/mL)”.

B3: I3RB22 (antibody, IgG1, V domains shown)
VH: QVQLVQSGAEVKKPGSSVKVSCKASGGTFSSYAISWVRQAPGQGLEWMGGIIPIFGTANYAQKFQGRVTITADESTSTAYMELSSLRSEDTAVYYCARNLFYWADSVYLDYWGQGTLVTVSS
VL: EIVLTQSPATLSLSPGERATLSCRASQSVNKWLAWYQQKPGQAPRLLIYYASNRATGIPARFSGSGSGTDFTLTISSLEPEDFAVYYCQQGIDWPRTFGQGTKVEIK
notes: IgG1
For B3, in assay [1], the Kd was determined as 4.12 nM, the koff amounted to 0.00106 s⁻¹ and the kon was determined as 257000 M⁻¹ s⁻¹. Also, in assay [2], the binding result is on record as “no binding (tested: 400 nM)”. Further, in assay [3], the binding result is “no binding (tested: 10 µg/mL)”. Besides, the binding result in assay [4] was “no binding (tested: 10 µg/mL)”.

B4: I3RB9 (antibody, IgG1, V domains shown)
VH: QVQLVQSGAEVKKPGSSVKVSCKASGGTFSSYAISWVRQAPGQGLEWMGGIIPIFGTANYAQKFQGRVTITADESTSTAYMELSSLRSEDTAVYYCARGARWFNPPENLDYWGQGTLVTVSS
VL: not shown
notes: IgG1; also called I3RB09
With B4, the Kd in assay [1] worked out at 12.4 nM. The koff in assay [1] is 0.00843 s⁻¹. Besides, the kon in assay [1] amounted to 680000 M⁻¹ s⁻¹. The binding result in assay [2] is recorded as “no binding (tested: 400 nM)”; in assay [3] it was “no binding (tested: 10 µg/mL)”; in assay [4] it was “no binding (tested: 10 µg/mL)”.

B5: I3RB24 (antibody, IgG1, V domains shown)
VH: QVQLVQSGAEVKKPGSSVKVSCKASGGTFSSYAISWVRQAPGQGLEWMGGIIPIFGTANYAQKFQGRVTITADESTSTAYMELSSLRSEDTAVYYCARHTDAWGYRLDYWGQGTLVTVSS
VL: not shown
notes: IgG1
Turning to B5, the Kd in assay [1] stood at 201 nM. Moreover, the koff in assay [1] was 0.226 s⁻¹. In addition, in assay [1], the kon worked out at 1.13e+06 M⁻¹ s⁻¹. In addition, the binding result in assay [2] is recorded as “no binding (tested: 400 nM)”; in assay [3], “no binding (tested: 10 µg/mL)”; in assay [4] it was “no binding (tested: 10 µg/mL)”.

B6: I3RB37 (antibody, IgG1, V domains shown)
VH: QVQLVQSGAEVKKPGSSVKVSCKASGGTFSSYAISWVRQAPGQGLEWMGGIIPIFGTANYAQKFQGRVTITADESTSTAYMELSSLRSEDTAVYYCARDKTDFPSRLDYWGQGTLVTVSS
VL: DIQMTQSPSSLSASVGDRVTITCRASQSIATWLNWYQQKPGKAPKLLIYAASSLQSGVPSRFSGSGSGTDFTLTISSLQPEDFATYYCQQYITFPLTFGQGTKVEIK
notes: IgG1
Take B6: the Kd is 6.27 nM and 5.15 nM in assay [1]; 9.7 nM in assay [5]. Moreover, the koff is 0.00669 s⁻¹ and 0.00621 s⁻¹ in assay [1]; 0.0053 s⁻¹ in assay [5]. Also, the kon in assay [1] is 1.07e+06 M⁻¹ s⁻¹ and 1.21e+06 M⁻¹ s⁻¹; in assay [5] it was 545000 M⁻¹ s⁻¹. In addition, the binding result in assay [3] is recorded as “no binding (tested: 10 µg/mL)”; in assay [4], “binds”.

B7: I3RB12 (antibody, IgG1, V domains shown)
VH: QVQLVQSGAEVKKPGSSVKVSCKASGGTFSSYAISWVRQAPGQGLEWMGGIIPIFGTANYAQKFQGRVTITADESTSTAYMELSSLRSEDTAVYYCARADRVWDYYLDYWGQGTLVTVSS
VL: not shown
notes: IgG1
In the case of B7, in assay [1], the Kd was determined as 9.61 nM, the koff amounted to 0.0078 s⁻¹ and the kon is 812000 M⁻¹ s⁻¹. Moreover, the binding result in assay [2] is on record as “no binding (tested: 400 nM)”. The binding result in assay [3] is “no binding (tested: 10 µg/mL)”. Besides, the binding result in assay [4] was “no binding (tested: 10 µg/mL)”.

B8: I3RB35 (antibody, IgG1, V domains shown)
VH: QVQLVQSGAEVKKPGSSVKVSCKASGGTFSSYAISWVRQAPGQGLEWMGGIIPIFGTANYAQKFQGRVTITADESTSTAYMELSSLRSEDTAVYYCARHLFWDAGPLDYWGQGTLVTVSS
VL: DIQMTQSPSSLSASVGDRVTITCRASQSISSYLNWYQQKPGKAPKLLIYAASSLQSGVPSRFSGSGSGTDFTLTISSLQPEDFATYYCQQYFSPPYTFGQGTKVEIK
notes: IgG1
On to B8, for which, in assay [1], the Kd is 2.83 nM, the koff stood at 0.00293 s⁻¹ and the kon is 1.04e+06 M⁻¹ s⁻¹. For the same molecule, in assay [5], the Kd turned out to be 4.8 nM, the koff is 0.00258 s⁻¹ and the kon is 540000 M⁻¹ s⁻¹. Moreover, the binding result in assay [4] is on record as “binds”.
